Experiments:
Experiment in all cases: pull-down
GINIP ∆N16 = GINIP ∆N16 (human, UniProt Q9UPV7 17-400)
[1] = target: Myristoylated GINIP (myr-GINIP), C-terminally His-tagged (human, UniProt Q9UPV7 1-400, myristoylated (co-expression with N-myristoyl transferase))
[2] = target: GINIP WT, C-terminally His-tagged (pET21a(+)-GINIP-His) (human, UniProt Q9UPV7 1-400)

Measured: binding result

Sequence of GINIP ∆N16 (Q9UPV7 17-400): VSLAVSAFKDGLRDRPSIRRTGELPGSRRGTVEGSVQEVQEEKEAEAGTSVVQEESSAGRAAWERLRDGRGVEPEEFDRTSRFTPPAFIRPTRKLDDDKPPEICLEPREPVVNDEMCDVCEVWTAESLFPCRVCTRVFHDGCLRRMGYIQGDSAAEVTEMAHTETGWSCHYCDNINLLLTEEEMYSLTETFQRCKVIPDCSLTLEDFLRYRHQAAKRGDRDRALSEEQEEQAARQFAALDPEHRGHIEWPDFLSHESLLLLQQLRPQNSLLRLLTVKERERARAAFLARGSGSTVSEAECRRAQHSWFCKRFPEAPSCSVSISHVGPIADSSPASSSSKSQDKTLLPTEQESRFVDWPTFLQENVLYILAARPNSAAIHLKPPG
Sequence of GINIP WT, C-terminally His-tagged (pET21a(+)-GINIP-His) (Q9UPV7 whole entry): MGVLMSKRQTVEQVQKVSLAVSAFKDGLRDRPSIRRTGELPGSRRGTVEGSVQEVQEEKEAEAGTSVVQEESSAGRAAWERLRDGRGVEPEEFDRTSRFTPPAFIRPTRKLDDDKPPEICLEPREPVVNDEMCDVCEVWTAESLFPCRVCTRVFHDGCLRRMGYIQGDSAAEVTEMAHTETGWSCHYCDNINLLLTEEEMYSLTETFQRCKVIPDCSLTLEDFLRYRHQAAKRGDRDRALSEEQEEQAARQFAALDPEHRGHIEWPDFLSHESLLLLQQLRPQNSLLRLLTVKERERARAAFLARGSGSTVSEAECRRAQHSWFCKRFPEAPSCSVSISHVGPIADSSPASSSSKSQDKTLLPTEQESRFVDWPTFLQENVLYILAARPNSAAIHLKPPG
Sequence of Myristoylated GINIP (myr-GINIP), C-terminally His-tagged (Q9UPV7 whole entry): as above

B1: GST-Gαi3 (natural protein)
chain: MGCTLSAEDKAAVERSKMIDRNLREDGEKAAKEVKLLLLGAGESGKSTIVKQMKIIHEDGYSEDECKQYKVVVYSNTIQSIIAIIRAMGRLKIDFGEAARADDARQLFVLAGSAEEGVMTSELAGVIKRLWRDGGVQACFSRSREYQLNDSASYYLNDLDRISQTNYIPTQQDVLRTRVKTTGIVETHFTFKELYFKMFDVGGQRSERKKWIHCFEGVTAIIFCVALSDYDLVLAEDEEMNRMHESMKLFDSICNNKWFTDTSIILFLNKKDLFEEKIKRSPLTICYPEYTGSNTYEEAAAYIQCQFEDLNRRKDTKEVYTHFTCATDTKNVQFVFDAVTDVIIKNNLKECGLY
binds: all assays above
